# In patent US20210315969A1, “GLYCOPROTEINS HAVING LIPID MOBILIZING PROPERTIES AND THERAPEUTIC USES THEREOF” (Aston University, priority 2008, published 2021):
# B1: Zinc-α2-glycoprotein (protein, listed as Homo sapiens)
# chain: QENQDGRYSLTYIYTGLSKHVEDVPAFQALGSLNDLQFFRYNSKDRKSQPMGLWRQVEGMEDWKEDSQLQKAREDMETLKDIVEYYNDSNGSHVLQGRFGCEIENNRSSGAFWKYYYDGKDYIEFNKEIPAWVPFDPAAQITKQKWEAEPVYVQRAKAYLEEECPATLRKYLKYSKNILDRQDPPSVVVTSHQAPGEKKKLKCLAYDFYPGKIDVHWTRAGQVQEPELRGDVLHNGNGTYQSWVVVAVPPQDTAPYSCHVQHSSLAQPLVVPWEAS
# notes: recombinant human Zinc-α2-glycoprotein, lipid mobilizing factor, expressed in HEK293F cells
# Assays:
# C2Cl2 myotubes = experiment: ROS formation and PKR/eIF2α phosphorylation in myotubes treated with glucose; format: cell-based, murine
# Excerpt: FIG. 21 is a graphical diagram showing ROS activity in C2Cl2 myotubes treated with various concentrations of glucose with and without ZAG. Statistically significant c, P<0.001 from control f, P<0.001 from glucose alone.
# FIG. 22A is a pictorial diagram of a Western blot showing PKR in C2Cl2 myotubes treated with glucose with and without ZAG. Statistically significant c, P<0.001 from control f, P<0.001 from glucose alone.
# FIG. 22B is a pictorial diagram of a Western blot showing elF2a in C2Cl2 myotubes treated with glucose with and without ZAG. Statistically significant c, P<0.001 from control f, P<0.001 from glucose alone.
# It has been shown that formation of reactive oxygen species (ROS) is important in protein degradation induced by high glucose load. […] High glucose also induces activation (phosphoiylation) of PKR (FIG. 22A) and the subsequent phosphorylation of elf2α (FIG. 22B) as is seen in skeletal muscle of ob/ob mice, which was also attenuated by ZAG.
# murine myotubes = experiment: Protein degradation and synthesis in myotubes subjected to high glucose; format: cell-based
# Procedure: FIGS. 18A and 18B is a graphical diagram showing phenylalanine release (FIG. 18A) and protein synthesis (FIG. 18B) in C2Cl2 myotubes treated with and without ZAG for 4 h in the presence of various concentrations of glucose. Statistically significant c, P<0.001 from control; f, P<0.001 from glucose alone.
# Statistically significant b, P<0.01 and c, P<0.001 from control; e, P<0.05 and f, P<0.001 from glucose alone.
# Statistically significant b, P<0.01 and c, P<0.001 from control; e, P<0.05 and f, P<:0.001 from glucose alone; I, P<0.001 from glucose+SR.
# This utilizes murine myotubes subjected. to high concentrations of glucose (10 or 25 mM).
# adipocytes = experiment: Lipolytic responsiveness of adipocytes from ZAG treated ob/ob mice to isoprenaline or BRL37344; format: in vivo
# Excerpt: FIG. 5K is a graphical diagram showing the response of adipocytes from epididymal (ep), subcutaneous (sc) and visceral (vis) deposits from ob/ob mice treated with either PBS or ZAG for 5 days to the lipolytic effect of BRI,37344, Differences from PBS controls are indicated as *** p<0.01, while differences in the presence of PD98059 is shown as # p<0.001.
# FIG. 9 is a graphical diagram showing glycerol release stimulated by isoprenaline (iso) isolated adipocytes which have been in culture up to 5 days from ob mice treated with and without ZAG.
# Lipolytic Assay—Samples to be assayed were incubated with 10^5 to 2×10^5 adipocytes for 2 h in 1 ml Krebs-Ringer bicarbonate buffer, pH 7.2. The concentration of glycerol released was determined enzymatically by the method of Wieland (Wieland, O. Glycerol UV method. In Methods of Enzymatic Analysis (ed. Bergmeyer, H. U.) (Academic Press, London, UK, pp 1404-1409, 1974)). Control samples containing adipocytes alone were analysed to determine the spontaneous glycerol release. Activity was expressed as nmol glycerol released/10^5 adipocytes/2 h.
# Adipocytes were removed from mice after 5 days of ZAG and their responsiveness to isoprenaline (iso) was measured after culture in the absence of ZAG (FIG. 9), The responsiveness to iso is higher in ZAG treated mice and this continues for a further 4 days (Which was when expression of ZAG and HSL were increased) and then falls on day 5 (when expression was not increased) down to values of PBS control.
# The data shown in Attachment 1 is from a 5 day study where ZAG was administered at 35 μg per day i.v. on a daily basis for 5 days. At the end of the experiment tissues were removed and blotted, or functional assays were carried out with isolated adipocytes. […] When ep adipocytes were prepared and maintained in tissue culture (RPMI 1640 ±10% FCS) ZAG expression was maintained for a further 3 days, even though no ZAG was added to the culture medium (FIG. 6B). […] In fact, as discussed above, too much ZAG is more likely to lead to resistance rather than an increased response.
molecule,measurement,setting,value
B1,glucose induced phosphorylation of PKR and eIF2α,C2Cl2 myotubes,attenuated
same,increase in ROS produced by glucose,C2Cl2 myotubes,completely attenuates
same,high glucose induced increase in protein degradation and depression of protein synthesis,"murine myotubes; ZAG 2.5 μg/ml, glucose 10 or 25 mM",completely attenuated
same,protein degradation induced by 10 and 25 mM glucose,murine myotubes; myotubes,attenuated
same,responsiveness of adipocytes to isoprenaline,"adipocytes; adipocytes from mice after 5 days ZAG, cultured in absence of ZAG",higher
same,lipolytic response of epididymal adipocytes to the β3 agonist BRL37344,adipocytes; adipocytes from mice treated 5 days,increased lipolytic response
same,time the increased response to isoprenaline was maintained in tissue culture,"adipocytes; isoprenaline 10 μM, absence of ZAG",4 days
